Changes are numbered by the printed parent chain.
How the values were obtained:
[1] = molecular target: T1, hNEIL2 P304T P304T (Homo sapiens) (UniProt Q969S2); assay: EMSA; details: THF (AP site analog) at position 21 of strand 1 (N); 25 mM potassium phosphate pH 7.5, 5 mM MgCl2, 1 mM DTT, 0.5 mg/mL BSA, 10% glycerol; 35 nM bubble or 100 nM duplex ligand; 5 min on ice, 8% native PAGE at 4 C
T1 sequence: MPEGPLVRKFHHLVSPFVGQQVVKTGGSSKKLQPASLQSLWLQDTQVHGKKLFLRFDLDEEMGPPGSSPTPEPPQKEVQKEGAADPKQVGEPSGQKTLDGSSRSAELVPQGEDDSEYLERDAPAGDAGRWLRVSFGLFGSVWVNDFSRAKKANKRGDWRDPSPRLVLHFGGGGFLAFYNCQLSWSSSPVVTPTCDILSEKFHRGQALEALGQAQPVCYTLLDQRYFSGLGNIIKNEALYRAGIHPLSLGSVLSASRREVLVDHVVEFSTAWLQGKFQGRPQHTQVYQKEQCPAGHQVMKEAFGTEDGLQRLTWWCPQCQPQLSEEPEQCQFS

[2] = molecular target: T2, hNEIL2 R103W R103W (Homo sapiens) (UniProt Q969S2); assay: EMSA; details: THF (AP site analog) at position 21 of strand 1 (N); 25 mM potassium phosphate pH 7.5, 5 mM MgCl2, 1 mM DTT, 0.5 mg/mL BSA, 10% glycerol; 35 nM bubble or 100 nM duplex ligand; 5 min on ice, 8% native PAGE at 4 C
T2 sequence: T1 sequence with R103W, T304P

hNEIL2 WT (Homo sapiens) = molecular target: T3, hNEIL2 WT (Homo sapiens) (UniProt Q969S2); assay: EMSA; details: THF (AP site analog) at position 21 of strand 1 (N); 25 mM potassium phosphate pH 7.5, 5 mM MgCl2, 1 mM DTT, 0.5 mg/mL BSA, 10% glycerol; 35 nM bubble or 100 nM duplex ligand; 5 min on ice, 8% native PAGE at 4 C
T3 sequence: T1 sequence with T304P

hNEIL2 WT = molecular target: T4, hNEIL2 WT (Homo sapiens, UniProt Q969S2 1-332); assay: EMSA; 5 mM Mg2+; apparent, sigmoidal fit; 25 mM potassium phosphate pH 7.5, 5 mM MgCl2, 1 mM DTT, 0.5 mg/mL BSA, 10% glycerol; 35 nM bubble or 100 nM duplex ligand; 5 min on ice, 8% native PAGE at 4 C; details: protein: recombinant; tags: C-terminal GHHHHHH; label: 32P; 10-nt central bubble between two 15-bp arms, blunt
T4 sequence: T1 sequence with T304P

hNEIL2 R103W = molecular target: T5, hNEIL2 R103W (Homo sapiens, UniProt Q969S2 1-332, R103W); assay: as above; details: protein: recombinant; tags: C-terminal GHHHHHH; label: 32P; 10-nt central bubble between two 15-bp arms, blunt
T5 sequence: T1 sequence with R103W, T304P

hNEIL2 P304T = molecular target: T6, hNEIL2 P304T (Homo sapiens, UniProt Q969S2 1-332, P304T); assay: as above; details: protein: recombinant; tags: C-terminal GHHHHHH; label: 32P; 10-nt central bubble between two 15-bp arms, blunt
T6 sequence: T1 sequence

## CCTGCATGGGCGGCAGAACTNGAGGCCATCCTCACCATCC / GGATGGTGAGGATGGGAGGTTCCCTTGCCGCCCATGCAGG [40F//40bubble (THF bubble)]
[1]
  K half: 6.4 µM
[2]
  K half: 10.4 µM
hNEIL2 WT (Homo sapiens)
  K half: 1000 nM

B1: 40C//40bubble (undamaged bubble) (dsDNA)
DNA 1: CCTGCATGGGCGGCAGAACTCGAGGCCATCCTCACCATCC
DNA 2: GGATGGTGAGGATGGGAGGTTCCCTTGCCGCCCATGCAGG
hNEIL2 WT
  apparent K (half saturation): 1000 ± 100 nM
hNEIL2 R103W
  apparent K (half saturation): 11.7 ± 0.7 µM
hNEIL2 P304T
  apparent K (half saturation): 7 ± 0.3 µM

Source: PMC8879280, “A Low-Activity Polymorphic Variant of Human NEIL2 DNA Glycosylase”
